Measured values taken from US20140004107A1 (published 2014).

T1: cynomolgus monkey ST2 on cynomolgus CD4+ T cells (cynomolgus monkey, UniProt Q01638 19-556 (human entry))
T1 chain: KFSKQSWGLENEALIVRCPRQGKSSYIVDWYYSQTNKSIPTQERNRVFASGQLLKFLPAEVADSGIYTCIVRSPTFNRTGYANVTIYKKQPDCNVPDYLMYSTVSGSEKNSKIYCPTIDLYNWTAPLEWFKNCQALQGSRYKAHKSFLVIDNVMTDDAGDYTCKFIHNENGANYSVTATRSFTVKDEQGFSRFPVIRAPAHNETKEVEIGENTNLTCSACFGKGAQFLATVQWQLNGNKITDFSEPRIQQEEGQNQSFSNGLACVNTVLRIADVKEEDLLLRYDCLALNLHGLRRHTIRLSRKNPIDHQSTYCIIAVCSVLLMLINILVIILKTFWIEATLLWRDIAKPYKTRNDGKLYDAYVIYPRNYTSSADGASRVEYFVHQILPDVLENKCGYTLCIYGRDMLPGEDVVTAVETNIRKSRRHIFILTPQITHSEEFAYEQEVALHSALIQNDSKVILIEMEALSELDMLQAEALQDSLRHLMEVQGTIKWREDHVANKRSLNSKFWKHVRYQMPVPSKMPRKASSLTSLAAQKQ

T2: human ST2 on human primary cells (human, UniProt Q01638 19-556)
T2 sequence: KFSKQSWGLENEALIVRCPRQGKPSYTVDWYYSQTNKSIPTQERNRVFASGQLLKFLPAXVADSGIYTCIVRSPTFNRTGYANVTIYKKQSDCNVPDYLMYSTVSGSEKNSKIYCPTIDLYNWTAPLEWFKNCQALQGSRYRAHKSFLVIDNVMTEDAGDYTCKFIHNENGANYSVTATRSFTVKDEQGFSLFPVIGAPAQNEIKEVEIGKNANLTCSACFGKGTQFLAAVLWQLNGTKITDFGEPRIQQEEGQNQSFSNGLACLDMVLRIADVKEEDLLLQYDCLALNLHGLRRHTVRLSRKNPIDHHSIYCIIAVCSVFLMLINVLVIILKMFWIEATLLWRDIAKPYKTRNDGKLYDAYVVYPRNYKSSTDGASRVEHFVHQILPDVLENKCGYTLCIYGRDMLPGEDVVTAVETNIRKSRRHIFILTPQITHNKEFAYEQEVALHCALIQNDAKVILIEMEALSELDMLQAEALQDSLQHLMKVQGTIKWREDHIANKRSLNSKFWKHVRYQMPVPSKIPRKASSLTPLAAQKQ

T3: soluble human ST2-FLAG His (human, UniProt Q01638 19-322, limits assumed)
T3 construct: also called human ST2-FH; 6xhistidine tagged human ST2; not shown: FLAG and 6x histidine tags
T3 sequence: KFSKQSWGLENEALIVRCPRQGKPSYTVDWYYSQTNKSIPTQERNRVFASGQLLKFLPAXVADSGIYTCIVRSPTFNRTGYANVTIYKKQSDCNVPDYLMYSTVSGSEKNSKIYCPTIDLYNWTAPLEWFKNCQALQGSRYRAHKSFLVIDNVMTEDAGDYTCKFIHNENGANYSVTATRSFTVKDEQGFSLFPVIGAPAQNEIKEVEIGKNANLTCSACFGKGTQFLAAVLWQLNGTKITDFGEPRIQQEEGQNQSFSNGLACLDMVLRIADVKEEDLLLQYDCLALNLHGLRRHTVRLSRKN

T4: biotinylated human ST2-Fc (human, UniProt Q01638 19-331, biotinylated)
T4 construct: also called ST2-Fc fusion protein; not shown: human antibody Fc domain
T4 sequence: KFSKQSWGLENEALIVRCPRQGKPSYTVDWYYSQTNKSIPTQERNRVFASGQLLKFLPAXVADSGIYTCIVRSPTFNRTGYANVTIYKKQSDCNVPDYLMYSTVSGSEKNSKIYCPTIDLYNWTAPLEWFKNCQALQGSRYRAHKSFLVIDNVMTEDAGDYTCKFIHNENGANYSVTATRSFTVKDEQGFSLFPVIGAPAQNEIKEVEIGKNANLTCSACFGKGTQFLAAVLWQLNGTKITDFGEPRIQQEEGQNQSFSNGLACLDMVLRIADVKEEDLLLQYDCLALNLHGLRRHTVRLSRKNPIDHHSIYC

T5: human ST2 (SPR analyte) (human, UniProt Q01638 19-322)
T5 construct: The ST2 reagent injected in SPR; leader is 1-18; also called hu ST2
T5 sequence: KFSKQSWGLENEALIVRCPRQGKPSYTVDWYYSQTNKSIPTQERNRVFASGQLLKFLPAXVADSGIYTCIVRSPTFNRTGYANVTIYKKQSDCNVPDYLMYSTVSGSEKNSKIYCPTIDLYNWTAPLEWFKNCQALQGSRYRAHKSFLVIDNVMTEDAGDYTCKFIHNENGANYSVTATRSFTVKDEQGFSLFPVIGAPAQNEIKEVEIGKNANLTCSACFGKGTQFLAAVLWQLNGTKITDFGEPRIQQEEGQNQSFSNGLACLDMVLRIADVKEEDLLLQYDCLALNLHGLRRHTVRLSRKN

T6: cynomolgus monkey ST2 (SPR analyte) (cynomolgus monkey, UniProt Q01638 19-322 (human entry))
T6 construct: The cyno ST2 reagent injected in SPR; leader is 1-18; also called cy ST2
T6 chain: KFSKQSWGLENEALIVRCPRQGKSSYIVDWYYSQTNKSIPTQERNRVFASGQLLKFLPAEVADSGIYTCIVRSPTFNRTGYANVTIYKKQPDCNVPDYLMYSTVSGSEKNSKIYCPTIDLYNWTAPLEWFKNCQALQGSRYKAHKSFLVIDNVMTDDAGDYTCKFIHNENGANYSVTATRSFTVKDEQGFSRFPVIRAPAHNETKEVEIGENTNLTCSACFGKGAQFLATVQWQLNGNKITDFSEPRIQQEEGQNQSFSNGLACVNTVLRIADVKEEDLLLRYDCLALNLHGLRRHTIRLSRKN


How the values were obtained:
[1] = target: T1, cynomolgus monkey ST2 on cynomolgus …; assay: cell-based or functional assay
[2] = target: T2, human ST2 on human primary cells; assay: cell-based or functional assay
[3] = target: T3, soluble human ST2-FLAG His; assay: AlphaScreen, biotinylated human IL-33 with human ST2-FH, antibody at 12.5 ug/ml
[4] = target: T4, biotinylated human ST2-Fc; assay: AlphaScreen, IL-33 mediated association of biotinylated human ST2-Fc with human AcP-FH, antibody at 12.5 ug/ml
Method: In the second assay, antibodies were evaluated for the ability to inhibit the IL-33 mediated association of ST2 with the co-receptor AcP. […] The ST2/AcP AlphaScreen was conducted in 8 ul reactions in a 384 well optiplate (Perkin Elmer). […] After the addition of all assay components the plates were incubated overnight in the dark at room temperature. The next day the plates were read on a 2103 Envision multilable reader (Perkin Elmer) using the same parameters as above for the first assay.

[5] = target: T2, human ST2 on human primary cells; assay: cell-based or functional assay; remark: listed apart in the source
human ST2 (SPR analyte) [6] = target: T5, human ST2 (SPR analyte); assay: SPR Biacore 4000, kd at pH 5.5 against kd at pH 7.4
Method: (§1) The association (5 min) rates at pH 7.4 and dissociation (10 min) rates at pH 5.5 and 7.4 were monitored at a flow rate of 30 uL/min. The reference subtracted data was fit to a 1:1 model in Scrubber.

human ST2 (SPR analyte) [7] = target: T5, human ST2 (SPR analyte); assay: SPR Biacore 3000, captured antibody, ST2 analyte, 25 C
[8] = target: T6, cynomolgus monkey ST2 (SPR analyte); assay: as above
human ST2 (SPR analyte) [9] = target: T5, human ST2 (SPR analyte); assay: SPR Biacore 4000, association at pH 7.4, dissociation at pH 5.5 (estimated kd)
Method: as §1

human ST2 (SPR analyte) [10] = target: T5, human ST2 (SPR analyte); assay: SPR Biacore 4000, association at pH 7.4, dissociation at pH 7.4 (estimated kd)
Method: as §1

| Binder | IC-50, cynomolgus monkey CD4+ T cell IFNγ release assay (IL-33, IL-2 and IL-12p70 stimulation) [1] [pM] | IC-50, human eosinophil IL-8 release assay (IL-33 and IL-3 stimulation) [2] [pM] | % inhib ST2-IL33 AS 12.5 ug/ml [3] [%] | % inhib ST2-AcP AS 12.5 ug/ml [4] [%] | IC50 of inhibition of human IL-33-induced IL-5 production from human CD4+ T cells [5] [pM] | pH 5.5/pH 7.4 koff fold change (human ST2 (SPR analyte) [6]) [fold] | Kd (human ST2 (SPR analyte) [7]) [pM] | koff (human ST2 (SPR analyte) [7]) [s⁻¹] | kon (human ST2 (SPR analyte) [7]) [M⁻¹ s⁻¹] | Kd [8] [pM] | koff [8] [s⁻¹] | kon [8] [M⁻¹ s⁻¹] | koff (human ST2 (SPR analyte) [9]) [s⁻¹] | koff (human ST2 (SPR analyte) [10]) [s⁻¹] |
| --- | --- | --- | --- | --- | --- | --- | --- | --- | --- | --- | --- | --- | --- | --- |
| Ab6 (antibody, human IgG2, kappa, V domains shown, fully human anti-ST2 antibody) VH: EVQLVESGGGLVQPGGSLRLSCAASGFTFSTYDMHWVRQTTGKGLEWVSAIDLAGDTYYPGSVKGRFTISREDAKNSLYLQMNSLRAGDTAVYYCARGGDGYNYDYYGIDVWGQGTTVTVSS VL: DIVMTQSPLSLPVTPGEPASISCRSSQSLLHSDGYHYLDWYLQKPGQSPQLLIYLGSNRASGVPDRFSGSGSGTDFTLNISRVEAEDVGVYYCMQALQTLTFGGGTKVEIKR | 47.1 | 63 | 98.5 | 71.2 |  |  |  |  |  |  |  |  |  |  |
| Ab7 (antibody, human IgG2, kappa, V domains shown, fully human anti-ST2 antibody) VH: EVQLVESGGGLVQPGGSLRLSCAASGFTFSTYDMHWVRQTTGKGLEWVSAIDLAGDTYYPGSVKGRFTISREDAKNSLYLQMNSLRAGDTAVYYCARGGDGYNYDYYGIDVWGQGTTVTVSS VL: DIVMTQSPLSLPVTPGEPASISCRSSQSLLHSDGYHYLDWYLQKPGQSPQLLIYLGSNRASGVPDRFSGSGSGTDFTLNISRVEAEDVGVYYCMQALQTLTFGGGTKVEIKR | 40 | 40.7 | 98.9 | 75.7 |  |  |  |  |  |  |  |  |  |  |
| Ab5 (antibody, human IgG2, kappa, V domains shown) VH: EVQLVESGGGWVQPGGSLRLSCAASGFTFSSYDMYWVRQATGKGLEWVSGIDTVGDTYYPDSVKGRFTISRENAKNSVYLQMNTLRAGDTAVYYCVRGIYGDFYYYGLDVWGHGTTVTVSS VL: DIVMTQSPLSLPVTPGEPASISCRSSQSLLYSDGNNYLDWYLQKPGQSPHLLIYLGSNRASGVPDRFSGSGSGTDFTLKISRVEADDVGVYYCMQALQTLTFGGGTKVEIKR | 12.9 | 73.3 |  |  | 64500 |  |  |  |  |  |  |  |  |  |
| Ab3 (antibody, human IgG2, kappa, V domains shown, fully human anti-ST2 antibody) VH: EVQLVESGGGLVQPGGSLRLSCAASGFTFSTYDMHWIRQAPGKNLEWVSAIDLAGDTYYPGSVKGRFTISREDAKNSLYLQMNSLRAGDTAVYYCARGGDGYNYDYYGIDVWGQGTTVTVSS VL: DIVMTQSPLSLPVTPGEPASISCRSSQSLLHSDGYHYLDWYLQKPGQSPQLLIYLGSNRASGVPDRFTGSGSGTDFTLKISRVEAEDVGVYYCMQALQILTFGGGTKVEIKR | 15.2 | 50.4 | 98.8 | 68.7 |  | 2.9 | 238 | 9.5e-05 | 400000 | 127 | 8.55e-05 | 674000 | 7.91e-05 | 2.73e-05 |
| Ab4 (antibody, human IgG2, kappa, V domains shown, fully human anti-ST2 antibody) VH: QVQLVQSGAEVKKPGASVKVSCEVSGFILTELSVNWVRQAPGKGLEWMGGFDPEDGKTIYAQKFQGRVTLTEDTSTDTAYMELSSLRSEDTAVYYCATWWDFHFDFWGQGTLVTVSS VL: DFVMTQTPLSLSVTPGQPASISCKSSQSLLHSNGKTYLYWFLQKPGQPPQLLIYEVSNRFSGVPDRFSGSGSGTDFTLKISRVEAEDVGVYYCMQSIQLPLTFGGGTKVEIKR | 4.03 | 14.1 | 98.4 | 77.8 |  | 16.9 | 301 | 0.000706 | 2.35e+06 | 516 | 0.00129 | 2.5e+06 | 0.0107 | 0.000632 |
| Ab1 (antibody, human IgG2, kappa, V domains shown, fully human anti-ST2 antibody) VH: QVQLVQSGAEVKKPGASVKVSCKVSGYTLTELSIHWVRQAPGKGLEWMGGFGPEDGETIYAQKFQGRVTMTEDTSTDTAYMELSSLRSEDTAVYYCTTEDSSGLFDYWGQGTLVTVSS VL: not shown | 15.8 | 51.5 | 98.1 | 86.9 | 10700 | 88.1 | 77.7 | 0.000111 | 1.43e+06 | 117 | 0.000197 | 1.69e+06 | 0.0118 | 0.000134 |
